Test [1] has as its target T1, human Tissue Factor (TF) (human, UniProt P13726 33-295). The test can be described thus: cell-based or functional assay.
Test [2] concerns the target T1, human Tissue Factor (TF). Nature of the test: cell-based or functional assay. The source holds these as a separate data set.
Test [3] has as its target T1, human Tissue Factor (TF). The test can be described thus: flow cytometry, MDA-MB-231 cells; competitor 20 nM FVII-Fc-Alexa488; antibody at 28 nM. For orientation: Flow cytometry measures light scatter and fluorescence of single cells or particles in a stream.
Procedure: (§1) After another 1 hr incubation on ice, cells were washed, stained with a viability dye, and analyzed by flow cytometry. The Alexa488 fluorescence data from viable cells was summarized using median fluorescence intensity.
Test [4] addresses T1, human Tissue Factor (TF). The test can be described thus: flow cytometry, MDA-MB-231 cells; competitor 20 nM FVII-Fc-Alexa488; antibody at 83 nM.
Procedure: as §1
Test [5] concerns the target T1, human Tissue Factor (TF). The test can be described thus: flow cytometry, MDA-MB-231 cells; competitor 20 nM FVII-Fc-Alexa488; antibody at 250 nM.
Procedure: as §1
In test [6] the target is T1, human Tissue Factor (TF). The test can be described thus: flow cytometry, MDA-MB-231 cells; competitor 20 nM FVII-Fc-Alexa488; antibody at 9.25 nM.
Procedure: as §1
Test [7] has as its target T1, human Tissue Factor (TF). The test can be described thus: flow cytometry, A431 cells; antibody at 100 nM; competitor 20 nM 25A-Alexa488.
Procedure: as §1
Test [8] has as its target T1, human Tissue Factor (TF). Nature of the test: flow cytometry, A431 cells; antibody at 100 nM; competitor 20 nM 43Ea-Alexa488.
Procedure: as §1
Test [9] has as its target T1, human Tissue Factor (TF). Nature of the test: cell-based or functional assay. This is another data set of the same source.
The target in test [10] is T2, rTF (rat TF) construct on HEK293 cells (rat, UniProt P42533 29-252).
T2 construct: not shown: transmembrane/cytoplasmic anchor of the cell-surface construct
T2 sequence (P42533 29-252 limits assumed): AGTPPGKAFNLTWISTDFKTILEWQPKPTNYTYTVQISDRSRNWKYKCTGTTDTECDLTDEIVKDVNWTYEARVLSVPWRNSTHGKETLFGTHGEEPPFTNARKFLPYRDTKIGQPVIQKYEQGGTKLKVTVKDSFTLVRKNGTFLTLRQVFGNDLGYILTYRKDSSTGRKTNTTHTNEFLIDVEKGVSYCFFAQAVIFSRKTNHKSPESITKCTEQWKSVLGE
The test can be described thus: flow cytometry (live cell staining), antibody titration 1:3 from 250 nM on HEK293 cells transfected with rTF.

B1: 39A (antibody, human IgG1, V domains shown)
VH: QVQLVQSGAEVKKPGSSVKVSCKASGGTFSSNAIGWVRQAPGQGLEWMGSIIPIIGFANYAQKFQGRVTITADESTSTAYMELSSLRSEDTAVYYCARDSGYYYGASSFGMDVWGQGTTVTVSS
VL: EIVMTQSPATLSVSPGERATLSCRASQSVSSNLAWYQQKPGQAPRLLIYGASTRATGIPARFSGSGSGTEFTLTISSLQSEDFAVYYCEQYNNLPLTFGGGTKVEIK
notes: Human IgG1; also called antibody designated 39A
Take B1: in test [1], the “% IL8 at 2.56 nM antibody” value was determined as 52%, the “% IL8 at 6.4 nM antibody” value is 6%, the “% IL8 at 16 nM antibody” value worked out at 2% and the “% IL8 at 40 nM antibody” value came out at 2%. For the same molecule, the “% IL8 at 100 nM antibody” value in test [1] stood at 3%. In addition, in test [2], the “% GM-CSF at 2.56 nM antibody” value amounted to 42%, the “% GM-CSF at 6.4 nM antibody” value turned out to be 8%, the “% GM-CSF at 16 nM antibody” value was found to be 5% and the “% GM-CSF at 40 nM antibody” value is 5%. Further, the “% GM-CSF at 100 nM antibody” value in test [2] turned out to be 7%. In test [3], the “% FVIIa” value came out at 2%. The “% FVIIa” value in [4] amounted to 2%. The “% FVIIa” value in test [5] was 2%. For the same molecule, the “% FVIIa” value in [6] was determined as 2%.

B2: 1F (antibody, human IgG1, V domains shown)
VH: EVQLLESGGGLVQPGGSLRLSCAASGFTFSDYAMGWVRQAPGKGLEWVSTISGSGGLTYYADSVKGRFTISRDNSKNTLYLQMNSLRAEDTAVYYCAKAPYGYYMDVWGKGTTVTVSS
VL: not shown
notes: Human IgG1; also called antibody designated 1F
For B2, in test [1], the “% IL8 at 2.56 nM antibody” value is 18%, the “% IL8 at 6.4 nM antibody” value came to 3%, the “% IL8 at 16 nM antibody” value came to 2% and the “% IL8 at 40 nM antibody” value is 2%. In [1], the “% IL8 at 100 nM antibody” value came out at 2%. In addition, in test [2], the “% GM-CSF at 2.56 nM antibody” value came to 27%, the “% GM-CSF at 6.4 nM antibody” value amounted to 8%, the “% GM-CSF at 16 nM antibody” value amounted to 6% and the “% GM-CSF at 40 nM antibody” value was 6%. In addition, the “% GM-CSF at 100 nM antibody” value in test [2] was found to be 6%. The “% 25A binding” value in test [7] came to 95%. In addition, the “% 43Ea binding” value in test [8] stood at 77%. In addition, the “% FVIIa” value in test [3] was determined as 7%. Also, in test [4], the “% FVIIa” value came out at 7%. Also, in [5], the “% FVIIa” value is 6%. The “% FVIIa” value in test [6] was found to be 7%.

B3: 1G (antibody, human IgG1, V domains shown)
VH: EVQLLESGGGLVQPGGSLRLSCAASGFTFSSYAMAWVRQAPGKGLEWVSAISGSGGLTYYADSVKGRFTISRDNSKNTLYLQMNSLRAEDTAVYYCAKAPYGYYMDVWGKGTTVTVSS
VL: not shown
notes: Human IgG1; also called antibody designated 1G
Take B3: in [9], the “% FXa at 12.5 nM antibody” value turned out to be 55%, the “% FXa at 25 nM antibody” value was found to be 48%, the “% FXa at 50 nM antibody” value amounted to 41% and the “% FXa at 100 nM antibody” value stood at 41%. Besides, in [1], the “% IL8 at 2.56 nM antibody” value was 26%, the “% IL8 at 6.4 nM antibody” value amounted to 4%, the “% IL8 at 16 nM antibody” value worked out at 3% and the “% IL8 at 40 nM antibody” value was determined as 2%. In test [1], the “% IL8 at 100 nM antibody” value was 2%. In addition, in [2], the “% GM-CSF at 2.56 nM antibody” value was 34%, the “% GM-CSF at 6.4 nM antibody” value is 9%, the “% GM-CSF at 16 nM antibody” value is 7% and the “% GM-CSF at 40 nM antibody” value was 7%. In test [2], the “% GM-CSF at 100 nM antibody” value was found to be 7%. Besides, the “% 25A binding” value in test [7] turned out to be 75%. In [8], the “% 43Ea binding” value worked out at 58%. The “% FVIIa” value in [3] was 7%. The “% FVIIa” value in test [4] is 7%. Moreover, in [5], the “% FVIIa” value came to 6%. Moreover, the “% FVIIa” value in [6] stood at 7%.

B4: 29D (antibody, human IgG1, V domains shown)
VH: QVQLVESGGGVVQPGRSLRLSCAASGFTFHSRGMHWVRQAPGKGLEWVAVITYDGINKYYADSVEGRFTISRDNSKNTLYLQMNSLRAEDTAVYYCARDGVYYGVYDYWGQGTLVTVSS
VL: not shown
notes: Human IgG1; also called antibody designated 29D
As to B4, in test [9], the “% FXa at 12.5 nM antibody” value was 85%, the “% FXa at 25 nM antibody” value was determined as 77%, the “% FXa at 50 nM antibody” value worked out at 75% and the “% FXa at 100 nM antibody” value is 75%. For the same molecule, in test [1], the “% IL8 at 2.56 nM antibody” value amounted to 27%, the “% IL8 at 6.4 nM antibody” value came out at 6%, the “% IL8 at 16 nM antibody” value turned out to be 2% and the “% IL8 at 40 nM antibody” value was determined as 2%. For the same molecule, the “% IL8 at 100 nM antibody” value in test [1] was determined as 1%. Moreover, in test [2], the “% GM-CSF at 2.56 nM antibody” value amounted to 38%, the “% GM-CSF at 6.4 nM antibody” value turned out to be 15%, the “% GM-CSF at 16 nM antibody” value was 7% and the “% GM-CSF at 40 nM antibody” value turned out to be 6%. The “% GM-CSF at 100 nM antibody” value in [2] came to 5%. Further, in [7], the “% 25A binding” value was 70%. Moreover, in test [8], the “% 43Ea binding” value was 64%. Moreover, in test [3], the “% FVIIa” value is 4%. In test [4], the “% FVIIa” value came to 3%. For the same molecule, the “% FVIIa” value in [5] is 3%. Moreover, the “% FVIIa” value in test [6] is 6%.

B5: 25A (antibody, human IgG1, V domains shown)
VH: QVQLVQSGAEVKKPGASVKVSCKASGYTFDVYGISWVRQAPGQGLEWMGWIAPYNGNTNYAQKLQGRVTMTTDTSTSTAYMELRSLRSDDTAVYYCARDAGTYSPFGYGMDVWGQGTTVTVSS
VL: DIQMTQSPSTLSASVGDRVTITCRASQSISSWLAWYQQKPGKAPKLLIYKASSLESGVPSRFSGSGSGTEFTLTISSLQPDDFATYYCQQFQSLPPFTFGGGTKVEIK
notes: Human IgG1; also called antibody designated 25A; Antibody Clone 25A
For the molecule B5, in [1], the “% IL8 at 2.56 nM antibody” value came out at 43%, the “% IL8 at 6.4 nM antibody” value stood at 11%, the “% IL8 at 16 nM antibody” value is 10% and the “% IL8 at 40 nM antibody” value was found to be 8%. For the same molecule, the “% IL8 at 100 nM antibody” value in test [1] was found to be 9%. Moreover, in [2], the “% GM-CSF at 2.56 nM antibody” value came to 57%, the “% GM-CSF at 6.4 nM antibody” value turned out to be 24%, the “% GM-CSF at 16 nM antibody” value was 22% and the “% GM-CSF at 40 nM antibody” value is 19%. The “% GM-CSF at 100 nM antibody” value in [2] amounted to 22%. Besides, the “% 25A binding” value in test [7] worked out at 3%. For the same molecule, the “% 43Ea binding” value in [8] came to 1%. Besides, in [4], the “% FVIIa” value was 97%. Moreover, the “% FVIIa” value in [5] stood at 98%. Besides, the “% FVIIa” value in test [6] was determined as 100%.

B6: 25A5-T (antibody, human IgG1, V domains shown)
VH: QVQLVQSGAEVKKPGASVKVSCKASGYTFDAYGISWVRQAPGQGLEWMGWIAPYSGNTNYAQKLQGRVTMTTDTSTSTAYMELRSLRSDDTAVYYCARDAGTYSPFGYGMDVWGQGTTVTVSS
VL: DIQMTQSPSTLSASVGDRVTITCRASESISNWLAWYQQKPGKAPKLLIYKAYSLEYGVPSRFSGSGSGTEFTLTISSLQPDDFATYYCQQFQKLPPFTFGGGTKVEIK
notes: Human IgG1; also called antibody designated 25A5-T
Regarding B6, the binding result in test [10] is recorded as “no binding (tested: 250 nM)”.

B7: 54E (antibody, human IgG1, V domains shown)
VH: QVQLVQSGAEVKKPGASVKVSCKASGYTFANYYMHWVRQAPGQGLEWMGIINPSGGITVYAQKFQGRVTMTRDTSTSTVYMELSSLRSEDTAVYYCARGGSKVAALAFDIWGQGTMVTVSS
VL: DIQMTQSPSSLSASVGDRVTITCQASQDISNSLNWYQQKPGKAPKLLIYDASNLETGVPSRFSGSRSGTDFTFTISSLQPEDIATYYCQQYNFHPLTFGGGTKVEIK
notes: Human IgG1; also called antibody designated 54E
Turning to B7, in test [9], the “% FXa at 12.5 nM antibody” value turned out to be 53%, the “% FXa at 25 nM antibody” value was 44%, the “% FXa at 50 nM antibody” value came out at 41% and the “% FXa at 100 nM antibody” value was 42%. In test [1], the “% IL8 at 2.56 nM antibody” value came to 48%, the “% IL8 at 6.4 nM antibody” value is 8%, the “% IL8 at 16 nM antibody” value was 3% and the “% IL8 at 40 nM antibody” value turned out to be 2%. Further, the “% IL8 at 100 nM antibody” value in test [1] was found to be 2%. Also, in test [2], the “% GM-CSF at 2.56 nM antibody” value stood at 38%, the “% GM-CSF at 6.4 nM antibody” value was 10%, the “% GM-CSF at 16 nM antibody” value was 5% and the “% GM-CSF at 40 nM antibody” value came to 5%. Also, the “% GM-CSF at 100 nM antibody” value in test [2] is 5%. In addition, the “% 25A binding” value in test [7] stood at 99%. In addition, the “% 43Ea binding” value in test [8] came to 96%. Further, the “% FVIIa” value in test [3] amounted to 3%. The “% FVIIa” value in test [4] was determined as 3%. For the same molecule, the “% FVIIa” value in test [5] turned out to be 2%. Moreover, the “% FVIIa” value in test [6] came to 11%.

The record behind these values is patent US20250361322A1 (ICONIC THERAPEUTICS, published 2025).
